Laboratory results published in paper PMC5647378, “Structural and Mechanistic Analysis of Drosophila melanogaster Agmatine N-Acetyltransferase, an Enzyme that Catalyzes the Formation of N-Acetylagmatine” (Scientific Reports, 2017).
Residue numbers refer to the chain shown, from its start. In names and notes the source's numbering stands. Where two headings read alike, the source gives them in different places. Values belong to the molecule of their own block, whether it stands above or below them.

What was measured:
[1] = target: T1, Drosophila melanogaster AgmNAT (CG15766), wild-type (Drosophila melanogaster, UniProt Q9W469); assay: AgmNAT dead-end and product inhibition analysis; format: biochemical
Experimental: Initial velocities were determined by varying the concentration of one substrate, while holding the other substrate at a fixed concentration. […] The resulting initial velocity data was fit to equation 3 for an ordered Bi-Bi mechanism and equation 4 for a ping pong mechanism using IGOR Pro 6.34 A, where vo is the initial velocity, Vmax is the maximal velocity, Kia is the dissociation constant for substrate A, Kb is the Michaelis constant for substrate B, Ka is the Michaelis constant for substrate A, [A] is the concentration of substrate A, and [B] is the concentration of substrate B.3 vo=Vmax[A][B]/KiaKb+Ka[B]+Kb[A]+[A][B] 4 vo=Vmax[A][B]/Ka[B]+Kb[A]+[A][B]
Inhibition experiments by either substrate analogs or N-acetylagamatine were used to discriminate between an ordered, random sequential, or ping pong kinetic mechanism. […] Initial velocity patterns were generated by varying the concentration of one substrate, holding the other substrate concentration at its apparent Km, and changing the concentration of inhibitor for each data set in triplicate. The resulting data was fit to equations 5–7, for competitive, noncompetitive, and uncompetitive inhibition respectively using SigmaPlot 12.0. For […], vo is the initial velocity, Vmax,app is the apparent maximal velocity, Km,app is the apparent Michaelis constant, [S] is the substrate concentration, [I] is the inhibitor concentration, and Ki is the inhibition constant.5 vo=Vmax,app[S]/Km,app(1+[I]/Ki)+[S] 6 vo=Vmax,app[S]/Km,app(1+[I]/Ki)+[S](1+[I]/Ki) 7 vo=Vmax,app[S]/Km,app+[S](1+[I]/Ki)

[2] = target: T1, Drosophila melanogaster AgmNAT (CG15766), wild-type; assay: AgmNAT steady-state kinetics, coenzyme A release with Ellman's reagent (DTNB); format: biochemical; conditions: for kcat,app / Km: 300 mM Tris-HCl pH 8.5, 150 µM DTNB; for acceptance as amine substrate: amine substrate screen with acetyl-CoA
Experimental: Steady-state kinetic constants for AgmNAT were determined by measuring the rate of coenzyme A release using Ellman’s reagent (DTNB) at 412 nm (molar absorptivity = 13,600 M^−1 cm^−1)[15]–[17]. […] Initial velocities were measured using a Cary 300 Bio UV-Visible spectrophotometer at 22 °C. Acyl-CoA kinetic constants were evaluated by holding the concentration of agmatine at a constant saturating concentration (5 mM). […] The apparent kinetic constants were determined by fitting the resulting data to equation 1 using SigmaPlot 12.0, where vo is the initial velocity, Vmax,app is the apparent maximal velocity, [S] is the substrate concentration, and Km,app is the apparent Michaelis constant. Each assay was performed in triplicate and the uncertainty for the kcat,app and (kcat/Km)app values were calculated using equation 2, where σ is the standard error.1 vo=Vmax,app[S]/Km,app+[S] 2 σ(x/y)=x/y(σx/x)^2+(σy/y)^2

[3] = substrate: NCCCCNCCCN; assay: as above; format: biochemical, Drosophila melanogaster; conditions: other: amine varied, 500 μM acetyl-CoA, 300 mM Tris-HCl pH 8.5, 150 µM DTNB, 22.0 °C
[4] = substrate: NCCCCCN; assay: as above; format: biochemical, Drosophila melanogaster; conditions: other: amine varied, 500 μM acetyl-CoA, 300 mM Tris-HCl pH 8.5, 150 µM DTNB, 22.0 °C
[5] = substrate: N=C(N)NCCCCN; assay: as above; format: biochemical, Drosophila melanogaster; conditions: other: amine varied, 500 μM acetyl-CoA, 300 mM Tris-HCl pH 8.5, 150 µM DTNB, 22.0 °C
[6] = substrate: N=C(N)NCCCCN; assay: Steady-state kinetics of AgmNAT site-directed mutant E34A; format: biochemical, Drosophila melanogaster; conditions: other: E34A, agmatine varied, saturating acetyl-CoA, pH 8.5
Excerpt: (§1) Following the amplification of the AgmNAT site-directed mutant, the sub-cloning, expression, and purification procedures are the same as discussed for the wild-type enzyme.

[7] = substrate: CC(=O)SCCNC(=O)CCNC(=O)[C@H](O)C(C)(C)COP(=O)(O)OP(=O)(O)OC[C@H]1O[C@@H](n2cnc3c(N)ncnc32)[C@H](O)[C@@H]1OP(=O)(O)O; assay: as above; format: biochemical, Drosophila melanogaster; conditions: other: E34A, acetyl-CoA varied, saturating agmatine, pH 8.5
Excerpt: as §1

[8] = substrate: N=C(N)NCCCCN; assay: Steady-state kinetics of AgmNAT site-directed mutant H206A; format: biochemical, Drosophila melanogaster; conditions: other: H206A, agmatine varied, saturating acetyl-CoA, pH 8.5
Excerpt: as §1

[9] = substrate: CC(=O)SCCNC(=O)CCNC(=O)[C@H](O)C(C)(C)COP(=O)(O)OP(=O)(O)OC[C@H]1O[C@@H](n2cnc3c(N)ncnc32)[C@H](O)[C@@H]1OP(=O)(O)O; assay: as above; format: biochemical, Drosophila melanogaster; conditions: other: H206A, acetyl-CoA varied, saturating agmatine, pH 8.5
Excerpt: as §1

[10] = substrate: N=C(N)NCCCCN; assay: Steady-state kinetics of AgmNAT site-directed mutant S171A; format: biochemical, Drosophila melanogaster; conditions: other: S171A, agmatine varied, saturating acetyl-CoA, pH 8.5
Excerpt: as §1

[11] = substrate: CC(=O)SCCNC(=O)CCNC(=O)[C@H](O)C(C)(C)COP(=O)(O)OP(=O)(O)OC[C@H]1O[C@@H](n2cnc3c(N)ncnc32)[C@H](O)[C@@H]1OP(=O)(O)O; assay: as above; format: biochemical, Drosophila melanogaster; conditions: other: S171A, acetyl-CoA varied, saturating agmatine, pH 8.5
Excerpt: as §1

[12] = substrate: N=C(N)NCCCCN; assay: Steady-state kinetics of AgmNAT site-directed mutant P35A; format: biochemical, Drosophila melanogaster; conditions: other: P35A, agmatine varied, saturating acetyl-CoA, pH 8.5
Excerpt: as §1

[13] = substrate: CC(=O)SCCNC(=O)CCNC(=O)[C@H](O)C(C)(C)COP(=O)(O)OP(=O)(O)OC[C@H]1O[C@@H](n2cnc3c(N)ncnc32)[C@H](O)[C@@H]1OP(=O)(O)O; assay: as above; format: biochemical, Drosophila melanogaster; conditions: other: P35A, acetyl-CoA varied, saturating agmatine, pH 8.5
Excerpt: as §1

[14] = varied substrate agmatine, constant acetyl-CoA (0.1 mM; 104 µM), read-out: Ki,s
[15] = acyl-CoA varied, 5 mM agmatine, read-out: Km,app
[16] = amine varied, 500 μM acetyl-CoA
[17] = amine varied, 500 μM acetyl-CoA, read-out: Km, app

Molecule: NC(N)=NCCCCN=C(N)N [Arcaine]
- Ki ([1]; varied substrate acetyl-CoA, constant agmatine (0.3 mM), read-out: Ki,i): 34 ± 1 µM
- Ki [1, 14]: 28 ± 1 µM
- type of inhibition plot (in words) ([1]; versus acetyl-CoA): uncompetitive
- type of inhibition plot (in words) ([1]; versus agmatine): competitive

Molecule: CCCC(=O)SCCNC(=O)CCNC(=O)[C@H](O)C(C)(C)COP(=O)(O)OP(=O)(O)OC[C@H]1O[C@@H](n2cnc3c(N)ncnc32)[C@H](O)[C@@H]1OP(=O)(O)O [Butyryl-CoA]
- kcat,app ([2]; acyl-CoA varied, 5 mM agmatine): 3.3 ± 0.1 s⁻¹
- Km [2, 15]: 40 µM

Molecule: CC(=O)NCCCNCCCCN [N ^1-acetylspermidine]
- acceptance as amine substrate [2]: not AgmNAT substrates

Molecule: CC(=O)NCCCCNCCCN [N ^8-acetylspermidine]
- difference in Km,app relative to spermidine ([2]; acetyl-CoA as co-substrate): ~ 2 fold
- increase in kcat,app compared to spermidine ([2]; acetyl-CoA as co-substrate): ~ 25 fold
- kcat,app [2, 16]: 32 ± 2 s⁻¹
- Km [2, 17]: 9100 ± 1000 µM

Molecule: CCCCCCCC(=O)SCCNC(=O)CCNC(=O)[C@H](O)C(C)(C)COP(=O)(O)OP(=O)(O)OC[C@H]1O[C@@H](n2cnc3c(N)ncnc32)[C@H](O)[C@@H]1OP(=O)(O)O [Octanoyl-CoA]
- kcat,app ([2]; acyl-CoA varied, 5 mM agmatine): 0.61 ± 0.02 s⁻¹
- Km [2, 15]: 140 µM

Molecule: NCCCNCCCCNCCCN [Spermine]
- (kcat/Km)app,agmatine/(kcat/Km)app,polyamine ratio ([2]; acetyl-CoA as co-substrate): 15
- kcat,app [2, 16]: 77 ± 7 s⁻¹
- Km [2, 17]: 18000 ± 3000 µM

Molecule: N=C(N)NCCC[C@H](N)C(=O)O [arginine]
- acceptance as amine substrate [2]: not AgmNAT substrates

B1: Drosophila melanogaster AgmNAT (CG15766), wild-type (Drosophila melanogaster) (protein)
chain: MAKPIADDIVVRQVDVGETEQLMTFLLAHYYPEEPLTAGTHPPEPEAADKEFLLSNVPFGTCFVALHEGRIVAAVVAGPKDSHEPEHMAEEARKYAGGKWGSILHLLSAVETATDVCRRFSVPSCLHVHALGVDPQLRGRNLGGRLMETVAQRGRDLGHQLVSVDCTSVYSARLVQRLGYQLINTLRYVDHLDASGQQVIRPPPPHESVQTFVLHL
- Km [3]: 17000 ± 500 µM
- kcat [3]: 1.3 ± 0.009 s⁻¹
- kcat/Km [3]: 76 ± 0.5 M⁻¹ s⁻¹
- Km [4]: 32000 ± 6000 µM
- kcat [4]: 1 ± 0.1 s⁻¹
- kcat/Km [4]: 32 ± 6 M⁻¹ s⁻¹
- Km [5]: 300 ± 20 µM
- kcat [5]: 18 ± 1 s⁻¹
- kcat/Km [5]: 60000 ± 5000 M⁻¹ s⁻¹

B2: AgmNAT E34A mutant (Drosophila melanogaster; E34A) (protein)
chain: B1 chain with E34A
- Km [6]: 6000 ± 1000 µM
- kcat [6]: 0.013 ± 0.001 s⁻¹
- kcat/Km [6]: 2.3 ± 0.3 M⁻¹ s⁻¹
- Km [7]: 18 ± 3 µM
- kcat [7]: 0.011 ± 0.0004 s⁻¹
- kcat/Km [7]: 600 ± 100 M⁻¹ s⁻¹

B3: AgmNAT H206A mutant (Drosophila melanogaster; H206A) (protein)
chain: B1 chain with H206A
- Km [8]: 420 ± 40 µM
- kcat [8]: 1.2 ± 0.1 s⁻¹
- kcat/Km [8]: 2800 ± 300 M⁻¹ s⁻¹
- Km [9]: (2.4 ± 0.3) × 10^2 μM
- kcat [9]: 1.3 ± 0.1 s⁻¹
- kcat/Km [9]: 5000 ± 1000 M⁻¹ s⁻¹

B4: AgmNAT S171A mutant (Drosophila melanogaster; S171A) (protein)
chain: B1 chain with S171A
- Km [10]: 1000 ± 200 µM
- kcat [10]: 1.7 ± 0.1 s⁻¹
- kcat/Km [10]: 1600 ± 300 M⁻¹ s⁻¹
- Km [11]: 24 ± 1 µM
- kcat [11]: 1.84 ± 0.03 s⁻¹
- kcat/Km [11]: 75000 ± 3000 M⁻¹ s⁻¹

B5: AgmNAT P35A mutant (Drosophila melanogaster; P35A) (protein)
chain: B1 chain with P35A
- Km [12]: 180 ± 20 µM
- kcat [12]: 0.36 ± 0.02 s⁻¹
- kcat/Km [12]: 1900 ± 200 M⁻¹ s⁻¹
- Km [13]: (2.3 ± 0.3) × 10^2 μM
- kcat [13]: 0.43 ± 0.03 s⁻¹
- kcat/Km [13]: 1900 ± 300 M⁻¹ s⁻¹

The next lines start with the values.

- (kcat/Km)app,agmatine/(kcat/Km)app,polyamine ratio ([2]; acetyl-CoA as co-substrate): 1900
Molecule: NCCCCCN [Cadaverine]

- kcat,app ([2]; acyl-CoA varied, 5 mM agmatine): 0.16 ± 0.01 s⁻¹
- Km [2, 15]: 70 µM
- decrease in kcat,app from acetyl-CoA to decanoyl-CoA ([2]; agmatine as saturating amine substrate): ~ 150 fold
Molecule: CCCCCCCCCC(=O)SCCNC(=O)CCNC(=O)[C@H](O)C(C)(C)COP(=O)(O)OP(=O)(O)OC[C@H]1O[C@@H](n2cnc3c(N)ncnc32)[C@H](O)[C@@H]1OP(=O)(O)O [Decanoyl-CoA]

- kcat,app ([2]; acyl-CoA varied, 5 mM agmatine): 1.1 ± 0.04 s⁻¹
- Km [2, 15]: 110 µM
Molecule: CCCCCC(=O)SCCNC(=O)CCNC(=O)C(O)C(C)(C)COP(=O)(O)OP(=O)(O)OC[C@H]1O[C@@H](n2cnc3c(N)ncnc32)[C@H](O)[C@@H]1OP(=O)(O)O (some centres unmarked) [Hexanoyl-CoA]

- acceptance as amine substrate [2]: not AgmNAT substrates
Molecule: CC(=O)NCCCCN [N-acetylputrescine]

- Ki ([1]; varied substrate acetyl-CoA, constant agmatine (0.3 mM), read-out: Ki,s): 19 ± 1 µM
- Ki ([1]; varied substrate agmatine, constant acetyl-CoA (0.1 mM; 104 µM), read-out: Ki,i): 67 ± 4 µM
- Ki [1, 14]: 67 ± 4 µM
- type of inhibition plot (in words) ([1]; versus acetyl-CoA): competitive
- type of inhibition plot (in words) ([1]; versus agmatine): noncompetitive
- acceptance as acyl-CoA substrate ([2]; agmatine as amine substrate, oleoyl-CoA at 500 μM): not a substrate
Molecule: CCCCCCCC/C=C\CCCCCCCC(=O)SCCNC(=O)CCNC(=O)[C@H](O)C(C)(C)COP(=O)(O)OP(=O)(O)OC[C@H]1O[C@@H](n2cnc3c(N)ncnc32)[C@H](O)[C@@H]1OP(=O)(O)O [Oleoyl-CoA]

- kcat,app [2, 16]: 7.7 ± 0.3 s⁻¹
- Km [2, 17]: 51000 ± 3000 µM
Molecule: NCCCCN [Putrescine]
